T1: human CXCR3 (hCXCR3) on Ba/F3 transfectant cells (human, UniProt P49682 1-368)
T1 sequence: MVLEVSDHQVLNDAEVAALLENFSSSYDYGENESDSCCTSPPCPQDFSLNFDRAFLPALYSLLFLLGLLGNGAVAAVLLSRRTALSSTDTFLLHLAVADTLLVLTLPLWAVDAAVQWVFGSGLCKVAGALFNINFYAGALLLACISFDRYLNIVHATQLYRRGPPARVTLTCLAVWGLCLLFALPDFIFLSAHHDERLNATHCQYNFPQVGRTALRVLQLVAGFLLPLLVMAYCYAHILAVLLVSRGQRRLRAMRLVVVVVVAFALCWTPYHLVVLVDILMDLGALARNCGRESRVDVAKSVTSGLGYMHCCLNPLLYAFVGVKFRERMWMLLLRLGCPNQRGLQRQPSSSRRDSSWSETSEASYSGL

B1: hCXCL11-G1T4k.one//VHn-G1T4h.one.H435R (Fc fusion)
chain 1: FPMFKRGRCLCIGPGVKAVKVADIEKASIMYPSNNCDKIEVIITLKENKGQRCLNPKSKQARLIIKKVERKNFEPKSSDKTHTCPPCPAPELRRGPSVFLFPPKPKDTLMISRTPEVTCVVVDVSHEDPEVKFNWYVDGVEVHNAKTKPREEQYNSTYRVVSVLTVLHQDWLNGKEYKCKVSNKGLPSSIEKTISKAKGQPREPQVCTLPPSREEMTKNQVSLWCLVKGFYPSDIAVEWESNGQPENNYKTTPPVLDSDGSFFLYSKLTVDKSRWQEGNVFSCSVMHEALHNHYTQKSLSLSP
chain 2: EPKSSDKTHTCPPCPAPELRRGPSVFLFPPKPKDTLMISRTPEVTCVVVDVSHEDPEVKFNWYVDGVEVHNAKTKPREEQYNSTYRVVSVLTVLHQDWLNGKEYKCKVSNKGLPSSIEKTISKAKGQPREPQVYTLPPSRCEMTKNQVSLSCAVKGFYPSDIAVEWESNGQPENNYKTTPPVLDSDGSFFLVSKLTVDKSRWQEGNVFSCSVMHEALHNRYTQKSLSLSP
B2: hCXCL11.0003-G1T4k.one//VHn-G1T4h.one.H435R (Fc fusion)
chain 1: FAMFKRGRCLCIGPGVKAVKVADIEKASIMYPSNNCDKIEVIITLKENKGQRCLNPKSKQARLIIKKVERKNFEPKSSDKTHTCPPCPAPELRRGPSVFLFPPKPKDTLMISRTPEVTCVVVDVSHEDPEVKFNWYVDGVEVHNAKTKPREEQYNSTYRVVSVLTVLHQDWLNGKEYKCKVSNKGLPSSIEKTISKAKGQPREPQVCTLPPSREEMTKNQVSLWCLVKGFYPSDIAVEWESNGQPENNYKTTPPVLDSDGSFFLYSKLTVDKSRWQEGNVFSCSVMHEALHNHYTQKSLSLSP
chain 2: EPKSSDKTHTCPPCPAPELRRGPSVFLFPPKPKDTLMISRTPEVTCVVVDVSHEDPEVKFNWYVDGVEVHNAKTKPREEQYNSTYRVVSVLTVLHQDWLNGKEYKCKVSNKGLPSSIEKTISKAKGQPREPQVYTLPPSRCEMTKNQVSLSCAVKGFYPSDIAVEWESNGQPENNYKTTPPVLDSDGSFFLVSKLTVDKSRWQEGNVFSCSVMHEALHNRYTQKSLSLSP
B3: hCXCL11.0005-G1T4k.one//VHn-G1T4h.one.H435R (Fc fusion)
chain 1: FEMFKRGRCLCIGPGVKAVKVADIEKASIMYPSNNCDKIEVIITLKENKGQRCLNPKSKQARLIIKKVERKNFEPKSSDKTHTCPPCPAPELRRGPSVFLFPPKPKDTLMISRTPEVTCVVVDVSHEDPEVKFNWYVDGVEVHNAKTKPREEQYNSTYRVVSVLTVLHQDWLNGKEYKCKVSNKGLPSSIEKTISKAKGQPREPQVCTLPPSREEMTKNQVSLWCLVKGFYPSDIAVEWESNGQPENNYKTTPPVLDSDGSFFLYSKLTVDKSRWQEGNVFSCSVMHEALHNHYTQKSLSLSP
chain 2: EPKSSDKTHTCPPCPAPELRRGPSVFLFPPKPKDTLMISRTPEVTCVVVDVSHEDPEVKFNWYVDGVEVHNAKTKPREEQYNSTYRVVSVLTVLHQDWLNGKEYKCKVSNKGLPSSIEKTISKAKGQPREPQVYTLPPSRCEMTKNQVSLSCAVKGFYPSDIAVEWESNGQPENNYKTTPPVLDSDGSFFLVSKLTVDKSRWQEGNVFSCSVMHEALHNRYTQKSLSLSP
B4: hCXCL11.0004-G1T4k.one//VHn-G1T4h.one.H435R (Fc fusion)
chain 1: FDMFKRGRCLCIGPGVKAVKVADIEKASIMYPSNNCDKIEVIITLKENKGQRCLNPKSKQARLIIKKVERKNFEPKSSDKTHTCPPCPAPELRRGPSVFLFPPKPKDTLMISRTPEVTCVVVDVSHEDPEVKFNWYVDGVEVHNAKTKPREEQYNSTYRVVSVLTVLHQDWLNGKEYKCKVSNKGLPSSIEKTISKAKGQPREPQVCTLPPSREEMTKNQVSLWCLVKGFYPSDIAVEWESNGQPENNYKTTPPVLDSDGSFFLYSKLTVDKSRWQEGNVFSCSVMHEALHNHYTQKSLSLSP
chain 2: EPKSSDKTHTCPPCPAPELRRGPSVFLFPPKPKDTLMISRTPEVTCVVVDVSHEDPEVKFNWYVDGVEVHNAKTKPREEQYNSTYRVVSVLTVLHQDWLNGKEYKCKVSNKGLPSSIEKTISKAKGQPREPQVYTLPPSRCEMTKNQVSLSCAVKGFYPSDIAVEWESNGQPENNYKTTPPVLDSDGSFFLVSKLTVDKSRWQEGNVFSCSVMHEALHNRYTQKSLSLSP
B5: hCXCL11.0008-G1T4k.one//VHn-G1T4h.one.H435R (Fc fusion)
chain 1: FHMFKRGRCLCIGPGVKAVKVADIEKASIMYPSNNCDKIEVIITLKENKGQRCLNPKSKQARLIIKKVERKNFEPKSSDKTHTCPPCPAPELRRGPSVFLFPPKPKDTLMISRTPEVTCVVVDVSHEDPEVKFNWYVDGVEVHNAKTKPREEQYNSTYRVVSVLTVLHQDWLNGKEYKCKVSNKGLPSSIEKTISKAKGQPREPQVCTLPPSREEMTKNQVSLWCLVKGFYPSDIAVEWESNGQPENNYKTTPPVLDSDGSFFLYSKLTVDKSRWQEGNVFSCSVMHEALHNHYTQKSLSLSP
chain 2: EPKSSDKTHTCPPCPAPELRRGPSVFLFPPKPKDTLMISRTPEVTCVVVDVSHEDPEVKFNWYVDGVEVHNAKTKPREEQYNSTYRVVSVLTVLHQDWLNGKEYKCKVSNKGLPSSIEKTISKAKGQPREPQVYTLPPSRCEMTKNQVSLSCAVKGFYPSDIAVEWESNGQPENNYKTTPPVLDSDGSFFLVSKLTVDKSRWQEGNVFSCSVMHEALHNRYTQKSLSLSP
B6: hCXCL11.0007-G1T4k.one//VHn-G1T4h.one.H435R (Fc fusion)
chain 1: FGMFKRGRCLCIGPGVKAVKVADIEKASIMYPSNNCDKIEVIITLKENKGQRCLNPKSKQARLIIKKVERKNFEPKSSDKTHTCPPCPAPELRRGPSVFLFPPKPKDTLMISRTPEVTCVVVDVSHEDPEVKFNWYVDGVEVHNAKTKPREEQYNSTYRVVSVLTVLHQDWLNGKEYKCKVSNKGLPSSIEKTISKAKGQPREPQVCTLPPSREEMTKNQVSLWCLVKGFYPSDIAVEWESNGQPENNYKTTPPVLDSDGSFFLYSKLTVDKSRWQEGNVFSCSVMHEALHNHYTQKSLSLSP
chain 2: EPKSSDKTHTCPPCPAPELRRGPSVFLFPPKPKDTLMISRTPEVTCVVVDVSHEDPEVKFNWYVDGVEVHNAKTKPREEQYNSTYRVVSVLTVLHQDWLNGKEYKCKVSNKGLPSSIEKTISKAKGQPREPQVYTLPPSRCEMTKNQVSLSCAVKGFYPSDIAVEWESNGQPENNYKTTPPVLDSDGSFFLVSKLTVDKSRWQEGNVFSCSVMHEALHNRYTQKSLSLSP
B7: hCXCL11.0009-G1T4k.one//VHn-G1T4h.one.H435R (Fc fusion)
chain 1: FIMFKRGRCLCIGPGVKAVKVADIEKASIMYPSNNCDKIEVIITLKENKGQRCLNPKSKQARLIIKKVERKNFEPKSSDKTHTCPPCPAPELRRGPSVFLFPPKPKDTLMISRTPEVTCVVVDVSHEDPEVKFNWYVDGVEVHNAKTKPREEQYNSTYRVVSVLTVLHQDWLNGKEYKCKVSNKGLPSSIEKTISKAKGQPREPQVCTLPPSREEMTKNQVSLWCLVKGFYPSDIAVEWESNGQPENNYKTTPPVLDSDGSFFLYSKLTVDKSRWQEGNVFSCSVMHEALHNHYTQKSLSLSP
chain 2: EPKSSDKTHTCPPCPAPELRRGPSVFLFPPKPKDTLMISRTPEVTCVVVDVSHEDPEVKFNWYVDGVEVHNAKTKPREEQYNSTYRVVSVLTVLHQDWLNGKEYKCKVSNKGLPSSIEKTISKAKGQPREPQVYTLPPSRCEMTKNQVSLSCAVKGFYPSDIAVEWESNGQPENNYKTTPPVLDSDGSFFLVSKLTVDKSRWQEGNVFSCSVMHEALHNRYTQKSLSLSP
B8: hCXCL11.0006-G1T4k.one//VHn-G1T4h.one.H435R (Fc fusion)
chain 1: FFMFKRGRCLCIGPGVKAVKVADIEKASIMYPSNNCDKIEVIITLKENKGQRCLNPKSKQARLIIKKVERKNFEPKSSDKTHTCPPCPAPELRRGPSVFLFPPKPKDTLMISRTPEVTCVVVDVSHEDPEVKFNWYVDGVEVHNAKTKPREEQYNSTYRVVSVLTVLHQDWLNGKEYKCKVSNKGLPSSIEKTISKAKGQPREPQVCTLPPSREEMTKNQVSLWCLVKGFYPSDIAVEWESNGQPENNYKTTPPVLDSDGSFFLYSKLTVDKSRWQEGNVFSCSVMHEALHNHYTQKSLSLSP
chain 2: EPKSSDKTHTCPPCPAPELRRGPSVFLFPPKPKDTLMISRTPEVTCVVVDVSHEDPEVKFNWYVDGVEVHNAKTKPREEQYNSTYRVVSVLTVLHQDWLNGKEYKCKVSNKGLPSSIEKTISKAKGQPREPQVYTLPPSRCEMTKNQVSLSCAVKGFYPSDIAVEWESNGQPENNYKTTPPVLDSDGSFFLVSKLTVDKSRWQEGNVFSCSVMHEALHNRYTQKSLSLSP

biological target: T1, human CXCR3 (hCXCR3) on Ba/F3 …; experiment: cell-based or functional assay

Going from B1 to B2, the “Luminescence value at 33 nM” value falls from 7.68e+06 to 3.76e+06.

Compared with B3, B4 is higher in “Luminescence value at 33 nM” value: 3.11e+06 for the first, 3.15e+06 for the second.

Going from B5 to B6, the “Luminescence value at 33 nM” value rises from 3.4e+06 to 3.47e+06.

Compared with B7, B8 is lower in “Luminescence value at 33 nM” value: 966000 for the first, 326000 for the second.

Compared with B1, B2 is lower in “Luminescence value at 100 nM” value: 1.67e+07 for the first, 1.17e+07 for the second.

First: B3
Second: B4
The “Luminescence value at 100 nM” value of the first is higher: 9.59e+06 for the first, 9.44e+06 for the second.

Going from B5 to B6, the “Luminescence value at 100 nM” value falls from 1.22e+07 to 1.02e+07.

First: B7
Second: B8
The “Luminescence value at 100 nM” value of the first is higher: 6.79e+06 for the first, 4.55e+06 for the second.

Compared with B1, B2 is lower in “Luminescence value at 300 nM” value: 1.24e+07 for the first, 1.12e+07 for the second.

First: B3
Second: B4
The “Luminescence value at 300 nM” value of the first is higher: 6.03e+06 for the first, 5.24e+06 for the second.

Compared with B5, B6 is lower in “Luminescence value at 300 nM” value: 1.34e+07 for the first, 9.71e+06 for the second.

First: B7
Second: B8
The “Luminescence value at 300 nM” value of the first is higher: 1.35e+07 for the first, 9.79e+06 for the second.

Going from B2 to B3, the “Activity retention rate at 33 nM” value falls from 49% to 40%.

Compared with B4, B5 is higher in “Activity retention rate at 33 nM” value: 41% for the first, 44% for the second.

First: B6
Second: B7
The “Activity retention rate at 33 nM” value of the first is higher: 45% for the first, 13% for the second.

In the case of B8, the “Activity retention rate at 33 nM” value is reported as 4%.

Compared with B2, B3 is lower in “Activity retention rate at 100 nM” value: 70% for the first, 57% for the second.

Compared with B4, B5 is higher in “Activity retention rate at 100 nM” value: 57% for the first, 73% for the second.

Going from B6 to B7, the “Activity retention rate at 100 nM” value falls from 61% to 41%.

B8 was tested, and the “Activity retention rate at 100 nM” value was 27%.

Compared with B2, B3 is lower in “Activity retention rate at 300 nM” value: 90% for the first, 49% for the second.

Going from B4 to B5, the “Activity retention rate at 300 nM” value rises from 42% to 108%.

Compared with B6, B7 is higher in “Activity retention rate at 300 nM” value: 78% for the first, 109% for the second.

For B8, the “Activity retention rate at 300 nM” value was 79%.

Reference: patent US20260217779A1 (Chugai, published 2026)
